According to PMC8026774 (Cellular and molecular neurobiology, 2020):
Where no end group is shown, it is not given here.

Key:
[1] = target: MOR-1B1-PK (mouse); experiment: cell-based or functional assay
[2] = target: MOR-1E-PK (mouse); experiment: cell-based or functional assay
[3] = target: MOR-TR-PK (mouse); experiment: cell-based or functional assay
[4] = target: MOR-1A-PK (mouse); experiment: cell-based or functional assay
[5] = target: T1, MOR-1-PK (mouse, UniProt P42866 1-398); experiment: cell-based or functional assay
[6] = target: MOR-1 (untagged) (mouse, UniProt P42866 1-398); experiment: radioligand binding
[7] = target: T1, MOR-1-PK; experiment: radioligand binding

T1 sequence (P42866 whole entry): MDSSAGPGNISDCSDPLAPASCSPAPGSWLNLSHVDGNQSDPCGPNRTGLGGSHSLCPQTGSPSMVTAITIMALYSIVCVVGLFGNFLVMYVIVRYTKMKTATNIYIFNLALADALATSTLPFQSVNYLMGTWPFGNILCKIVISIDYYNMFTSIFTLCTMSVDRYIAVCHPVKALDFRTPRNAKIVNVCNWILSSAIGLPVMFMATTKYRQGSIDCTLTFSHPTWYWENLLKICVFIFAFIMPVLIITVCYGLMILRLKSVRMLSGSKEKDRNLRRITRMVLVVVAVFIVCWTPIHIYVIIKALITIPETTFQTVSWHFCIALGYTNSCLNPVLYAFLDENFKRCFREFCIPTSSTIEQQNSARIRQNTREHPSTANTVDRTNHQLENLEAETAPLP
Chain of MOR-1 (untagged) (P42866 whole entry): as above
Chain of MOR-1B1-PK (mouse) (P42866 whole entry): as above
Chain of MOR-1A-PK (mouse) (P42866 whole entry): as above
Chain of MOR-1E-PK (mouse) (P42866 whole entry): as above
Chain of MOR-TR-PK (mouse) (P42866 whole entry): as above

YGGFMTSEKSQTPLVTLFKNAIIKNAYKKGE (not fully specified) [β-endorphin]
[35S]GTPγS binding (G-protein activation), EC50 [1]: 141 nM | [35S]GTPγS binding (G-protein activation), EC50 [2]: 23 nM | [35S]GTPγS binding (G-protein activation), EC50 [3]: 691 nM | [35S]GTPγS binding (G-protein activation), EC50 [4]: 112 nM | [35S]GTPγS binding (G-protein activation), EC50 [5]: 118 nM | Ki [6]: 6.22 nM | Ki [7]: 10.4 nM
